Laboratory results published in ChEMBL document CHEMBL1177690, “Target-specific control of lymphoid-specific protein tyrosine phosphatase (Lyp) activity” (Bioorg Med Chem, 2010).

Legend:
[1] = substrate: O=C(O)c1ccccc1-c1c2ccc(=O)c([As]3SCCS3)c-2oc2c([As]3SCCS3)c(O)ccc12; assay: Activity at Lyp expressed in Escherichia coli using DADEpYLIPQQG as a substrate […]
[2] = substrate: O=C(O)c1ccccc1-c1c2ccc(=O)c([As]3SCCS3)c-2oc2c([As]3SCCS3)c(O)ccc12; assay: Activity at Lyp expressed in Escherichia coli using pNPP as a substrate […]

B1: Tyrosine-protein phosphatase non-receptor type 22 (Homo sapiens), Q9Y2R2 (protein)
chain: MDQREILQKFLDEAQSKKITKEEFANEFLKLKRQSTKYKADKTYPTTVAEKPKNIKKNRYKDILPYDYSRVELSLITSDEDSSYINANFIKGVYGPKAYIATQGPLSTTLLDFWRMIWEYSVLIIVMACMEYEMGKKKCERYWAEPGEMQLEFGPFSVSCEAEKRKSDYIIRTLKVKFNSETRTIYQFHYKNWPDHDVPSSIDPILELIWDVRCYQEDDSVPICIHCSAGCGRTGVICAIDYTWMLLKDGIIPENFSVFSLIREMRTQRPSLVQTQEQYELVYNAVLELFKRQMDVIRDKHSGTESQAKHCIPEKNHTLQADSYSPNLPKSTTKAAKMMNQQRTKMEIKESSSFDFRTSEISAKEELVLHPAKSSTSFDFLELNYSFDKNADTTMKWQTKAFPIVGEPLQKHQSLDLGSLLFEGCSNSKPVNAAGRYFNSKVPITRTKSTPFELIQQRETKEVDSKENFSYLESQPHDSCFVEMQAQKVMHVSSAELNYSLPYDSKHQIRNASNVKHHDSSALGVYSYIPLVENPYFSSWPPSGTSSKMSLDLPEKQDGTVFPSSLLPTSSTSLFSYYNSHDSLSLNSPTNISSLLNQESAVLATAPRIDDEIPPPLPVRTPESFIVVEEAGEFSPNVPKSLSSAVKVKIGTSLEWGGTSEPKKFDDSVILRPSKSVKLRSPKSELHQDRSSPPPPLPERTLESFFLADEDCMQAQSIETYSTSYPDTMENSTSSKQTLKTPGKSFTRSKSLKILRNMKKSICNSCPPNKPAESVQSNNSSSFLNFGFANRFSKPKGPRNPPPTWNI
With B1 as the protein, how does the kcat [1] read?
Its kcat is 3.84 s⁻¹.

What about the kcat [2] of the same protein?
Its kcat is 0.49 s⁻¹.
